Laboratory results as given in paper PMC7817217 (2020).

Target: SARS-CoV-2 spike protein receptor binding domain (RBD) (SARS-CoV-2, UniProt P0DTC2 319-541)
Experiment: SPR

B1: bACE2-Rm residues 19 to 615 fused to the mouse Fc tag (bACE2-Rm-mFc) (Fc fusion)
chain: STTEDEAKKFLDKFNSKAEDLSYESSLASWDYNTNISDENVQKMDEAGAKWSAFYEEQSKLAKNYPLEEIQNDTVKRQLQILQQSGSPVLSEDKSKRLNSILNAMSTIYSTGKVCKPNNPQECLLLEPGLDNIMGTSKDYNERLWAWEGWRAEVGKQLRPLYEEYVVLKNEMARGYHYEDYGDYWRRDYETEESSGPGYSRDQLMKDVDRIFTEIKPLYEHLHAYVRAKLMDTYPLHISPTGCLPAHLLGDMWGRFWTNLYPLTVPFGQKPNIDVTDAMLNQGWDANRIFKEAEKFFVSVSLPKMTEGFWNKSMLTEPGDGRKVVCHPTAWDLGKGDFRIKMCTKVTMEDFLTAHHEMGHIQYDMAYASQPYLLRNGANEGFHEAVGEVMSLSVATPKHLKTMGLLSPDFREDDETEINFLLKQALNIVGTLPFTYMLEKWRWMVFKGEIPKEEWMKKWWEMKREIVGVVEPVPHDETYCDPASLFHVANDYSFIRYYTRTIFEFQFHEALCRIAQHNGPLHKCDISNSTDAGKKLHQMLSVGKSQAWTKTLEDIVDSRNMDVGPLLRYFKPLYTWLQEQNRKSYVGWNTDWSPYAD
In the case of B1, the Kd is reported as 500 nM.
